Measurements reported in US11357833B2, “Use of lysin to restore/augment antibacterial activity in the presence of pulmonary surfactant of antibiotics inhibited thereby” (priority 2015, dated 2022).
Converted amounts (≈) assume the structure as drawn.

How the values were obtained:
[1] = tested on: MRSA, MSSA, and VISA strains of S. aureus; assay: MIC by broth microdilution in increasing surfactant, strains pooled; conditions: for Antimicrobial activity in the presence of pulmonary (bovine-derived) surfactant: MRSA, MSSA and VISA strains
[2] = tested on: methicillin resistant strain (MRSA) MW2; assay: MIC by broth microdilution, with and without bovine-derived surfactant
MRSA NRS-265 = assay: Combination MIC assay in 7.5% surfactant; set-up: MIC alone / MIC combo: unit not given beside the values; conditions: for MIC combo: CF-301 and daptomycin in combination; for MIC alone: single agent
MSSA ATCC 29213 = assay: Combination MIC assay in 7.5% surfactant; set-up: MIC alone / MIC combo: unit not given beside the values; conditions: for MIC combo: CF-301 and daptomycin in combination; for MIC alone: single agent
MRSA NRS-255 = assay: Combination MIC assay in 7.5% surfactant; set-up: MIC alone / MIC combo: unit not given beside the values; conditions: for MIC combo: CF-301 and daptomycin in combination; for MIC alone: single agent
MSSA ATCC 25923 = assay: Combination MIC assay in 7.5% surfactant; set-up: MIC alone / MIC combo: unit not given beside the values; conditions: for MIC combo: CF-301 and daptomycin in combination; for MIC alone: single agent
MRSA NRS-192 = assay: Combination MIC assay in 7.5% surfactant; set-up: MIC alone / MIC combo: unit not given beside the values; conditions: for MIC combo: CF-301 and daptomycin in combination; for MIC alone: single agent
[3] = tested on: methicillin-susceptible (MSSA) strain ATCC 29213; assay: MIC by broth microdilution, with and without bovine-derived surfactant
[4] = tested on: S. aureus (MRSA strain ATCC BAA-42); assay: Murine model of S. aureus pneumonia; conditions: 14 days; CF-301 i.v., DAP s.c.; once daily
MSSA Newman = assay: Combination MIC assay in 7.5% surfactant; set-up: MIC alone / MIC combo: unit not given beside the values; conditions: for MIC combo: CF-301 and daptomycin in combination; for MIC alone: single agent
MRSA BAA-1720 = assay: Combination MIC assay in 7.5% surfactant; set-up: MIC alone / MIC combo: unit not given beside the values; conditions: for MIC combo: CF-301 and daptomycin in combination; for MIC alone: single agent
MSSA NRS-131 = assay: Combination MIC assay in 7.5% surfactant; set-up: MIC alone / MIC combo: unit not given beside the values; conditions: for MIC combo: CF-301 and daptomycin in combination; for MIC alone: single agent
MSSA ATCC 49521 = assay: Combination MIC assay in 7.5% surfactant; set-up: MIC alone / MIC combo: unit not given beside the values; conditions: for MIC combo: CF-301 and daptomycin in combination; for MIC alone: single agent
MRSA MW2 [5] = assay: Combination MIC assay in 7.5% surfactant; set-up: MIC alone / MIC combo: unit not given beside the values; conditions: for MIC combo: CF-301 and daptomycin in combination; for MIC alone: single agent
[6] = tested on: 5 strains of MRSA and 5 strains of MSSA; assay: Combination MIC assay in 7.5% surfactant, strains pooled; conditions: CF-301 and DAP combined, across strains
VISA ATCC 700699 = assay: BODIPY-labeled daptomycin binding assay, fluorescence microscopy; conditions: CF-301 4 μg/ml; DAP^BD 4 μg/ml; 30 min; 7.5% surfactant
MRSA MW2 [7] = assay: as above; conditions: CF-301 8 μg/ml; BODIPY-DAP 4 μg/ml; 7.5% surfactant

Molecule: CCCCCCCCCC(=O)N[C@@H](Cc1c[nH]c2ccccc12)C(=O)N[C@H](CC(N)=O)C(=O)N[C@@H](CC(=O)O)C(=O)N[C@@H]1C(=O)NCC(=O)N[C@@H](CCCN)C(=O)N[C@@H](CC(=O)O)C(=O)N[C@H](C)C(=O)N[C@@H](CC(=O)O)C(=O)NCC(=O)N[C@H](CO)C(=O)N[C@@H]([C@H](C)CC(=O)O)C(=O)N[C@@H](CC(=O)c2ccccc2N)C(=O)O[C@@H]1C [DAP, daptomycin, reference compound]
- Antimicrobial activity in the presence of pulmonary (bovine-derived) surfactant [1]: not active
- MIC increase ([1]; strain not specified, surfactant concentrations 1.25-15%): 256 fold
- MIC ([2]; Staphylococcus aureus, MRSA, 24 h, read-out: Starting MIC (without surfactant)): 1 µg/mL (≈ 0.617 µM)
- Fold reduction (MIC alone vs combo) (MRSA NRS-265): 1024 fold
- MIC combo (MRSA NRS-265): 0.25
- MIC alone (MRSA NRS-265): 256
- Fold reduction (MIC alone vs combo) (MSSA ATCC 29213): 512 fold
- MIC combo (MSSA ATCC 29213): 0.5
- MIC alone (MSSA ATCC 29213): 256
- Fold reduction (MIC alone vs combo) (MRSA NRS-255): 1024 fold
- MIC combo (MRSA NRS-255): 0.5
- MIC alone (MRSA NRS-255): 512
- Fold reduction (MIC alone vs combo) (MSSA ATCC 25923): 512 fold
- MIC combo (MSSA ATCC 25923): 0.5
- MIC alone (MSSA ATCC 25923): 256
- Fold reduction (MIC alone vs combo) (MRSA NRS-192): 512 fold
- MIC combo (MRSA NRS-192): 0.5
- MIC alone (MRSA NRS-192): 256
- MIC ([3]; Staphylococcus aureus, ATCC29213|MSSA, 24 h, read-out: Starting MIC (without surfactant)): 1 µg/mL (≈ 0.617 µM)
- Survival pattern, comparison between treatment groups [4]: same survival pattern as those treated with saline
- Fold reduction (MIC alone vs combo) (MSSA Newman): 512 fold
- MIC combo (MSSA Newman): 0.5
- MIC alone (MSSA Newman): 256
- Fold reduction (MIC alone vs combo) (MRSA BAA-1720): 1024 fold
- MIC combo (MRSA BAA-1720): 0.25
- MIC alone (MRSA BAA-1720): 256
- Fold reduction (MIC alone vs combo) (MSSA NRS-131): 1024 fold
- MIC combo (MSSA NRS-131): 0.5
- MIC alone (MSSA NRS-131): 512
- Fold reduction (MIC alone vs combo) (MSSA ATCC 49521): 512 fold
- MIC combo (MSSA ATCC 49521): 0.5
- MIC alone (MSSA ATCC 49521): 256
- Fold reduction (MIC alone vs combo) (MRSA MW2 [5]): 1024 fold
- MIC combo (MRSA MW2 [5]): 0.25
- MIC alone (MRSA MW2 [5]): 256

B1: CF-301: Bacteriophage lysin polypeptide, SEQ ID NO: 1 (GenBank accession ZP 03625529), antimicrobial agent against Staphylococcus aureus (protein, listed as Streptococcus suis)
chain: MTTVNEALNNVRAQVGSGVSVGNGECYALASWYERMISPDATVGLGAGVGWVSGAIGDTISAKNIGSSYNWQANGWTVSTSGPFKAGQIVTLGATPGNPYGHVVIVEAVDGDRLTILEQNYGGKRYPVRNYYSAASYRQQVVHYITPPGTVAQSAPNLAGSRSYRETGTMTVTVDALNVRRAPNTSGEIVAVYKRGESFDYDTVIIDVNGYVWVSYIGGSGKRNYVATGATKDGKRFGNAWGTFK
- Antimicrobial activity in the presence of pulmonary (bovine-derived) surfactant [1]: active
- MIC increase ([2]; MRSA strain, surfactant concentrations 1.25-15%): up to 2 fold
- Starting MIC (without surfactant) ([2]; MW2, no surfactant, 24 hours at 35° C.): 32 µg/mL
- Fold reduction (MIC alone vs combo) (MRSA NRS-265): 16 fold
- MIC combo (MRSA NRS-265): 4
- MIC alone (MRSA NRS-265): 64
- Growth inhibitory concentration lower in combination than as single agent (MIC reduction) [6]: 16-32 fold
- DAP^BD binding to VISA (VISA ATCC 700699): promotes
- Fold reduction (MIC alone vs combo) (MSSA ATCC 29213): 32 fold
- MIC combo (MSSA ATCC 29213): 4
- MIC alone (MSSA ATCC 29213): 128
- Fold reduction (MIC alone vs combo) (MRSA NRS-255): 16 fold
- MIC combo (MRSA NRS-255): 2
- MIC alone (MRSA NRS-255): 64
- BODIPY-DAP (DAP^BD) binding to MRSA (MRSA MW2 [7]): promotes
- Fold reduction (MIC alone vs combo) (MSSA ATCC 25923): 32 fold
- MIC combo (MSSA ATCC 25923): 4
- MIC alone (MSSA ATCC 25923): 128
- Fold reduction (MIC alone vs combo) (MRSA NRS-192): 16 fold
- MIC combo (MRSA NRS-192): 4
- MIC alone (MRSA NRS-192): 64
- Starting MIC (without surfactant) ([3]; ATCC 29213, no surfactant, 24 hours at 35° C.): 16 µg/mL
- MIC increase ([3]; MSSA strain, surfactant concentrations 1.25-15%): up to 2 fold
- Fold reduction (MIC alone vs combo) (MSSA Newman): 32 fold
- MIC combo (MSSA Newman): 4
- MIC alone (MSSA Newman): 128
- Fold reduction (MIC alone vs combo) (MRSA BAA-1720): 32 fold
- MIC combo (MRSA BAA-1720): 2
- MIC alone (MRSA BAA-1720): 64
- Fold reduction (MIC alone vs combo) (MSSA NRS-131): 16 fold
- MIC combo (MSSA NRS-131): 4
- MIC alone (MSSA NRS-131): 64
- Fold reduction (MIC alone vs combo) (MSSA ATCC 49521): 32 fold
- MIC combo (MSSA ATCC 49521): 2
- MIC alone (MSSA ATCC 49521): 64
- Fold reduction (MIC alone vs combo) (MRSA MW2 [5]): 32 fold
- MIC combo (MRSA MW2 [5]): 2
- MIC alone (MRSA MW2 [5]): 64
